Experimental data: paper PMC9482650, “Quantitative fragmentomics allow affinity mapping of interactomes” (Nature Communications, 2022)

T1: DVL3, Q92997
T1 sequence (Q92997 244-331, limits assumed, looked up): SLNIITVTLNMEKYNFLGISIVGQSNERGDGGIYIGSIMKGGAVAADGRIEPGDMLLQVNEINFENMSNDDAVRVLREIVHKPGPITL

T2: HTRA4, P83105
T2 sequence (P83105 378-476, limits assumed, looked up): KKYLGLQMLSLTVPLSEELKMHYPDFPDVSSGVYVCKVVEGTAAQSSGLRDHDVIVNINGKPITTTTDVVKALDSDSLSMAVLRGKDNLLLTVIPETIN

T3: FRMPD1, Q5SYB0
T3 sequence (Q5SYB0 52-145, limits assumed, looked up): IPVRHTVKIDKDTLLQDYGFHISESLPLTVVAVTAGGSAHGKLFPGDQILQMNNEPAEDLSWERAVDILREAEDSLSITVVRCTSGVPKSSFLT

T4: APBA2_1, Q99767
T4 sequence (Q99767 563-664, limits assumed, looked up): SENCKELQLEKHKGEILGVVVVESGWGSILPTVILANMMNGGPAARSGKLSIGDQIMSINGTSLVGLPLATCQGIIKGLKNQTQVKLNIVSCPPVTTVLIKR

T5: GRIP1_7, Q9Y3R0
T5 sequence (Q9Y3R0 999-1096, limits assumed, looked up): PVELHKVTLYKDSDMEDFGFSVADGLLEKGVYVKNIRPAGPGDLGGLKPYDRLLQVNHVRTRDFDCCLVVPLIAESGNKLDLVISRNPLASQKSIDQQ

T6: SNTG1, Q9NSN8
T6 sequence (Q9NSN8 52-150, limits assumed, looked up): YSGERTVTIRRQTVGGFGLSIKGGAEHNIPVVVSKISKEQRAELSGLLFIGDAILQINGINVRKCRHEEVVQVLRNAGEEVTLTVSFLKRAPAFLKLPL

T7: CARD11, Q9BXL7
T7 sequence (Q9BXL7 662-765, limits assumed, looked up): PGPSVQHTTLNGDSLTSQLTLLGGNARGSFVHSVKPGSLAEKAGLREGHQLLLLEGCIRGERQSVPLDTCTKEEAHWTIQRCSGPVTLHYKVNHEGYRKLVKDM

T8: APBA2_2, Q99767
T8 sequence (Q99767 654-744, limits assumed, looked up): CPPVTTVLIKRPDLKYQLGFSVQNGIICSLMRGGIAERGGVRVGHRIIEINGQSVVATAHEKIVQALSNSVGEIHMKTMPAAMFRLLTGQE

T9: MPP2, Q14168
T9 sequence (Q14168 180-250, limits assumed, looked up): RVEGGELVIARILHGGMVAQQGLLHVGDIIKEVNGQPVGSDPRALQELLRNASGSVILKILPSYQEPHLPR

T10: TIAM2, Q8IVF5
T10 sequence (Q8IVF5 885-986, limits assumed, looked up): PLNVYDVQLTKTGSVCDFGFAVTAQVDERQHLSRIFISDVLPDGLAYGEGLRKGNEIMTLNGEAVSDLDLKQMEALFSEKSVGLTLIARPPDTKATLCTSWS

T11: PDZD7_3, Q9H5P4
T11 sequence (Q9H5P4 857-944, limits assumed, looked up): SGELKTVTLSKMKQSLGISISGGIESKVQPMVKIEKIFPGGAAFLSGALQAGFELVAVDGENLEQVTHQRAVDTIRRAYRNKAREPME

T12: MPP7, Q5T2T1
T12 sequence (Q5T2T1 134-230, limits assumed, looked up): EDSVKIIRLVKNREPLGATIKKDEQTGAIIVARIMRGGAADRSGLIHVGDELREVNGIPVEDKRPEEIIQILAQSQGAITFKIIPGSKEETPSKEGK

T13: MPDZ_12, O75970
T13 sequence (O75970 1857-1958, limits assumed, looked up): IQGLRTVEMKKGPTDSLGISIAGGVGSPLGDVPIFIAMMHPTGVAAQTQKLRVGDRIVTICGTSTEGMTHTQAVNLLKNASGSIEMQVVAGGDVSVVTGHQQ

T14: NHERF3_3, Q5T2W1
T14 sequence (Q5T2W1 238-333, limits assumed, looked up): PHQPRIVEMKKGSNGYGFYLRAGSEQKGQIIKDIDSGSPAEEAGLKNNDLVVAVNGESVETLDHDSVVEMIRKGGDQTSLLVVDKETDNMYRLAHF

T15: LNX2_2, Q8N448
T15 sequence (Q8N448 334-432, limits assumed, looked up): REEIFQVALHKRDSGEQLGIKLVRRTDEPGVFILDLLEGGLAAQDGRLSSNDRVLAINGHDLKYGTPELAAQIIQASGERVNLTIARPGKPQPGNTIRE

B1: SLC9A3, P48764 (peptide)
chain: PAALPESTHM
B2: SLC26A3, P40879 (peptide)
chain: VYEVPVETKF

target: AHNAK1, Q09666; assay: holdup assay; set-up: key: below the threshold = too weak to quantify, mostly under pKd 3.1 to 4; conditions: plain residues with an end cap or a label only (N-terminal biotin on a linker: ado-ado)
Sequence (Q09666 4-100): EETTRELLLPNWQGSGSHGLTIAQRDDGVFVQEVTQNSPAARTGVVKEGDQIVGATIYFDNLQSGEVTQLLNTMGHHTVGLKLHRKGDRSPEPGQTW

| Binder | pKd |
| --- | --- |
| B1 | below the threshold |
| B2 | below the threshold |

target: TJP1_2, Q07157; assay: holdup assay; set-up: key: below the threshold = too weak to quantify, mostly under pKd 3.1 to 4; conditions: plain residues with an end cap or a label only (N-terminal biotin on a linker: ado-ado)
Sequence (Q07157 181-274): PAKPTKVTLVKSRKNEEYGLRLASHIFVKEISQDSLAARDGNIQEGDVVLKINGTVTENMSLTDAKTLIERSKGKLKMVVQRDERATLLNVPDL

| Binder | pKd |
| --- | --- |
| B1 | below the threshold |
| B2 | below the threshold |

target: LIMK2, P53671; assay: holdup assay; set-up: key: below the threshold = too weak to quantify, mostly under pKd 3.1 to 4; conditions: plain residues with an end cap or a label only (N-terminal biotin on a linker: ado-ado)
Sequence (P53671 143-248): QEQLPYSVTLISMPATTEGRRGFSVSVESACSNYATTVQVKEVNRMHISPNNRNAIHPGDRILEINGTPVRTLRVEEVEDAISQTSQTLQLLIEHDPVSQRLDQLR

| Binder | pKd |
| --- | --- |
| B1 | below the threshold |
| B2 | below the threshold |

target: T1, DVL3, Q92997; assay: holdup assay; set-up: key: below the threshold = too weak to quantify, mostly under pKd 3.1 to 4; conditions: plain residues with an end cap or a label only (N-terminal biotin on a linker: ado-ado)

| Binder | pKd |
| --- | --- |
| B1 | below the threshold |
| B2 | below the threshold |

target: T2, HTRA4, P83105; assay: holdup assay; set-up: key: below the threshold = too weak to quantify, mostly under pKd 3.1 to 4; conditions: plain residues with an end cap or a label only (N-terminal biotin on a linker: ado-ado)

| Binder | pKd |
| --- | --- |
| B1 | 3.9 |
| B2 | below the threshold |

target: T3, FRMPD1, Q5SYB0; assay: holdup assay; set-up: key: below the threshold = too weak to quantify, mostly under pKd 3.1 to 4; conditions: plain residues with an end cap or a label only (N-terminal biotin on a linker: ado-ado)

| Binder | pKd |
| --- | --- |
| B1 | below the threshold |
| B2 | below the threshold |

target: GRIP2_3, Q9C0E4; assay: holdup assay; set-up: key: below the threshold = too weak to quantify, mostly under pKd 3.1 to 4; conditions: plain residues with an end cap or a label only (N-terminal biotin on a linker: ado-ado)
Sequence (Q9C0E4 238-339): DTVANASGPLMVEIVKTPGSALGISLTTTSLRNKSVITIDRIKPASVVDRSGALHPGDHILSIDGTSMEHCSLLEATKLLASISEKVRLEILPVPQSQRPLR

| Binder | pKd |
| --- | --- |
| B1 | below the threshold |
| B2 | below the threshold |

target: Inadl_3, Q8NI35; assay: holdup assay; set-up: key: below the threshold = too weak to quantify, mostly under pKd 3.1 to 4; conditions: plain residues with an end cap or a label only (N-terminal biotin on a linker: ado-ado)
Sequence (Q8NI35 359-469): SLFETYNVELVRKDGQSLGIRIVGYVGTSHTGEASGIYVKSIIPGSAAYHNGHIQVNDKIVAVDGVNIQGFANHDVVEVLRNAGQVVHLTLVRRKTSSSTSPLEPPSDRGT

| Binder | pKd |
| --- | --- |
| B1 | below the threshold |
| B2 | below the threshold |

target: ARHGEF12, Q9NZN5-2; assay: holdup assay; set-up: key: below the threshold = too weak to quantify, mostly under pKd 3.1 to 4; conditions: plain residues with an end cap or a label only (N-terminal biotin on a linker: ado-ado)
Sequence (Q9NZN5 other isoform, or with tags, fused parts or gaps): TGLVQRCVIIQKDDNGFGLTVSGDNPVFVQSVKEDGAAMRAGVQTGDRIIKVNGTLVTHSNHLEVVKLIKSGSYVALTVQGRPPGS

| Binder | pKd |
| --- | --- |
| B1 | below the threshold |
| B2 | below the threshold |

target: T4, APBA2_1, Q99767; assay: holdup assay; set-up: key: below the threshold = too weak to quantify, mostly under pKd 3.1 to 4; conditions: plain residues with an end cap or a label only (N-terminal biotin on a linker: ado-ado)

| Binder | pKd |
| --- | --- |
| B1 | below the threshold |
| B2 | below the threshold |

target: T5, GRIP1_7, Q9Y3R0; assay: holdup assay; set-up: key: below the threshold = too weak to quantify, mostly under pKd 3.1 to 4; conditions: plain residues with an end cap or a label only (N-terminal biotin on a linker: ado-ado)

| Binder | pKd |
| --- | --- |
| B1 | below the threshold |
| B2 | below the threshold |

target: SCRIB_1, Q14160; assay: holdup assay; set-up: key: below the threshold = too weak to quantify, mostly under pKd 3.1 to 4; conditions: plain residues with an end cap or a label only (N-terminal biotin on a linker: ado-ado)
Sequence (Q14160 718-814): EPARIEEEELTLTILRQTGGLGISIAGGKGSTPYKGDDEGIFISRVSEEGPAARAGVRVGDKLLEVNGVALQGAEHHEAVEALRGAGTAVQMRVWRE

| Binder | pKd |
| --- | --- |
| B1 | 3.57 |
| B2 | 4.18 |

target: T6, SNTG1, Q9NSN8; assay: holdup assay; set-up: key: below the threshold = too weak to quantify, mostly under pKd 3.1 to 4; conditions: plain residues with an end cap or a label only (N-terminal biotin on a linker: ado-ado)

| Binder | pKd |
| --- | --- |
| B1 | below the threshold |
| B2 | below the threshold |

target: MAST2, Q6P0Q8; assay: holdup assay; set-up: key: below the threshold = too weak to quantify, mostly under pKd 3.1 to 4; conditions: plain residues with an end cap or a label only (N-terminal biotin on a linker: ado-ado)
Sequence (Q6P0Q8 1099-1202): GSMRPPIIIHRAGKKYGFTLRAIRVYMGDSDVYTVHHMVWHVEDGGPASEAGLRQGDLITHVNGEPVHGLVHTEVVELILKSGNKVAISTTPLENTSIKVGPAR

| Binder | pKd |
| --- | --- |
| B1 | 5.35 |
| B2 | 5.48 |

target: T7, CARD11, Q9BXL7; assay: holdup assay; set-up: key: below the threshold = too weak to quantify, mostly under pKd 3.1 to 4; conditions: plain residues with an end cap or a label only (N-terminal biotin on a linker: ado-ado)

| Binder | pKd |
| --- | --- |
| B1 | below the threshold |
| B2 | below the threshold |

target: T8, APBA2_2, Q99767; assay: holdup assay; set-up: key: below the threshold = too weak to quantify, mostly under pKd 3.1 to 4; conditions: plain residues with an end cap or a label only (N-terminal biotin on a linker: ado-ado)

| Binder | pKd |
| --- | --- |
| B1 | below the threshold |
| B2 | below the threshold |

target: T9, MPP2, Q14168; assay: holdup assay; set-up: key: below the threshold = too weak to quantify, mostly under pKd 3.1 to 4; conditions: plain residues with an end cap or a label only (N-terminal biotin on a linker: ado-ado)

| Binder | pKd |
| --- | --- |
| B1 | below the threshold |
| B2 | below the threshold |

target: T10, TIAM2, Q8IVF5; assay: holdup assay; set-up: key: below the threshold = too weak to quantify, mostly under pKd 3.1 to 4; conditions: plain residues with an end cap or a label only (N-terminal biotin on a linker: ado-ado)

| Binder | pKd |
| --- | --- |
| B1 | below the threshold |
| B2 | 3.98 |

target: T11, PDZD7_3, Q9H5P4; assay: holdup assay; set-up: key: below the threshold = too weak to quantify, mostly under pKd 3.1 to 4; conditions: plain residues with an end cap or a label only (N-terminal biotin on a linker: ado-ado)

| Binder | pKd |
| --- | --- |
| B1 | below the threshold |
| B2 | below the threshold |

target: T12, MPP7, Q5T2T1; assay: holdup assay; set-up: key: below the threshold = too weak to quantify, mostly under pKd 3.1 to 4; conditions: plain residues with an end cap or a label only (N-terminal biotin on a linker: ado-ado)

| Binder | pKd |
| --- | --- |
| B1 | below the threshold |
| B2 | below the threshold |

target: T13, MPDZ_12, O75970; assay: holdup assay; set-up: key: below the threshold = too weak to quantify, mostly under pKd 3.1 to 4; conditions: plain residues with an end cap or a label only (N-terminal biotin on a linker: ado-ado)

| Binder | pKd |
| --- | --- |
| B1 | below the threshold |
| B2 | below the threshold |

target: T14, NHERF3_3, Q5T2W1; assay: holdup assay; set-up: key: below the threshold = too weak to quantify, mostly under pKd 3.1 to 4; conditions: plain residues with an end cap or a label only (N-terminal biotin on a linker: ado-ado)

| Binder | pKd |
| --- | --- |
| B1 | below the threshold |
| B2 | 4.16 |

target: T15, LNX2_2, Q8N448; assay: holdup assay; set-up: key: below the threshold = too weak to quantify, mostly under pKd 3.1 to 4; conditions: plain residues with an end cap or a label only (N-terminal biotin on a linker: ado-ado)

| Binder | pKd |
| --- | --- |
| B1 | below the threshold |
| B2 | below the threshold |
